{"source": "a protein production outcome set (Wang et al. 2014)", "assay": "label from the status in PepcDB records"}
{"sequence": "MGWEFFSLETLQELARQYGYGAVFFGIALENAGIPIPGETITLLGGFLAGSGDLSYGGVLIAAIAGAVLGDSCGYWVGRWGGWPLLTRAAQLFNIPQEKLDQARHKFSQNGAAAVFFGRFVTLLRIFAGPMAGIVRMPYGKFLLYNIGGASVWAAITVSLAYFLGRVVTIEQIIAWTTQFSWFALAAVVGMVGIYFVFHFLQKRFDQTIESTIGDRPQ", "values": [{"measurement": "protein production", "value": "failed"}]}
{"sequence": "MGWFFVFCAAISEIVGVIGLKMYSKDKTLANGAIYIGGFATSFAFLYTSFLFLQVSVAYAVWIGIGTAGAVLLNMFLFGESKSKARIISVFLIVCGVTGLKALS", "values": [{"measurement": "protein production", "value": "failed"}]}
{"sequence": "MGYPPIRRFEYEHRGTETFTGRSPVPCHHAGIMSLYLRKQAYGVAPMKKIILSTIAALVASGSVFASYGTAAAQDYPYRPRYDRGYDRGGPPPPPYREHRRHNDGAAIAGGLAAGVIGGLIGGAIANGNGGPRYYEPPPPPRCWFEDRRVPNAYDGGWHMESMRVCN", "values": [{"measurement": "protein production", "value": "failed"}]}
{"sequence": "MGYPPPTRRLGDKKRYHYSNNPNRRHPSAVYSKNSFPKSSNNGFVSSPTADNSTNPSVTPSTASVPLPTAAPGSTFGIEAPRPSRYDPSSVSRPSSSSYSSTRKIGSRYNPDVERSSSTTSSTPESMNTSTITHTNTDIGNSRYSRKTMSRYNPQSTSSTNVTHFPSALSNAPPFYVANGSSRRPRSMDDYSPDVTNKLETNNVSSVNNNSPHSYYSRSNKWRSIGTPSRPPFDNHVGNMTTTSNTNSIHQREPFWKANSTTILKSTHSQSSPSLHTKKFHDANKLDKPEASVKVETPSKDETKAISYHDNNFPPRKSVSKPNAPLEPDNIKVGEEDALGKKEVHKSGREIAKEHPTPVKMKEHDELEARAKKVSKINIDGKQDEIWTTAKTVASAVEVSKESQKELTRSVERKESPEIRDYERAYDPKALKTDVTKLTVDNDNKSYEEPLEKVEGCIFPLPKAETRLWELKNQKRNKIISEQKYLLKKAIRNFSEYPFYAQNKLIHQQATGLILTKIISKIKKEEHLKKINLKHDYFDLQKKYEKECEILTKLSENLRKEEIENKRKEHELMEQKRREEGIETEKEKSLRHPSSSSSSRRRNRADFVDDAEMENVLLQIDPNYKHYQAAATIPPLILDPIRKHSYKFCDVNNLVTDKKLWASRILKDASDNFTDHEHSLFLEGYLIHPKKFGKISHYMGGLRSPEECVLHYYRTKKTVNYKQLLIDKNKKRKMSAAAKRRKRKERSNDEEVEVDESKEESTNTIEKEEKSENNAEENVQPVLVQGSEVKGDPLGTPEKVENMIEQRGEEFAGELENAERVNDLKRAHDEVGEESNKSSVIETNNGVQIMDPKGAVQNGYYPEETKELDFSLENALQRKKHKSAPEHKTSYWSVRESQLFPELLKEFGSQWSLISEKLGTKSTTMVRNYYQRNAARNGWKLLVDETDLKRDGTSSESVQQSQILIQPERPNINAYSNIPPQQRPALGYFVGQPTHGHNTSISSIDGSIRPFGPDFHRDTFSKISAPLTTLPPPRLPSIQFPRSEMAEPTVTDLRNRPLDHIDTLADAASSVTNNQNFSNERNAIDIGRKSTTISNLLNNSDRSMKSSFQSASRHEAQLEDTPSMNNIVVQEIKPNITTPRSSSISALLNPVNGNGQSNPDGRPLLPFQHAISQGTPTFPLPAPRTSPISRAPPKFNFSNDPLAALAAVASAPDAMSSFLSKKENNN", "values": [{"measurement": "protein production", "value": "failed"}]}
{"sequence": "MHAPAILRQSGIDALLAGDGSPEIMVTDSPSPPVKRSKIWELSRTYHCPVIGLCLPASDLERFAKRFHFKASINNAHDLHVEAVCRVTSRNVVSETIHKYLDRLYESHIKQFDAAKTDSEVLALWETCFTNERIAGPLWAALTHKRISSEGREQIHDRVHMHMHEAVAELSATQHRLNQAEQMLKELAGQLEQIREKHVQTESRLRQQLQQAAAEIKQLQQSRRESETTRQRLETLESGQAILRMGQRLMQLTVENEQLQIKAAQADDLKQSLKNACHNLTELYHERDTLRVERDTLENLLLTLNSGSTTDTETADTTETKMAAYECILCVGGRSTLLPQYRTLARQLGLKLSHHDGGQEDALSRLPEMIYGAAAVICPTDYVSHAAYYQVKRLCRLGHKPCLLFKGTGVSSFAAALTKITSGQASINSSPVDTVETTT", "values": [{"measurement": "protein production", "value": "failed"}]}
{"sequence": "MHARDVMVSPVVTVGPNATVRQVAQILLERRISAVPVVDADNKVLGIVSEGDLLHRAESGTERSPSWWLRLLTGDAQLATDYVKSHSIKVQDVMTQEVATAAPETPLHEIAMLLEERQIKRVPIVNKEGQLVGIVSRANLLQTIASARPKLEISLPDSVIRKRFFEELRKQPWAHTFNVNATVQNGVVDIWGFAPSVAERTAIRVAAEAIPGVATVNDHLLETPAFVY", "values": [{"measurement": "protein production", "value": "failed"}]}
{"sequence": "MHATTLPSGIRAGRHERTPPPMTVQTGQTRQTRSRTWTRVTGTAAVVAAALTATVTPSVAAPAETPPASVTAAAADVGYDTWQRDCRAVMDAALPYLKERIAGSAPGEKQAVVLDIDNTSLETDFGFSYPQPANRPVLEVAEYAQEHGVALFFVTARPGIIEAPTEWNLAHAGYESSGLYVRGFLDLFKDVAEYKTEQRAEIESKGYTIIANIGNSASDLSGGHAEKTFKLPDYDGQLS", "values": [{"measurement": "protein production", "value": "failed"}]}
{"sequence": "MHCLIHVPELMNVKGIGGFENLCDLELLTSYLEEVDLIMTNHSTKRSSRSFKISRDHSTTRSSRAHHHFTSPLDPERSSNSITPLDCILDDKLQSLLHSALNQTLEHKEEKKIPAIHSSSHSTTLVEYSS", "values": [{"measurement": "protein production", "value": "failed"}]}
{"sequence": "MHEESGPSWGMRGLRKWLGTAPETRDELLKLVQDSRRFLEPDTVAMLEGVLDLPATKVREVMTPRTSIISLQEDDELLDILHVLIESAHSRFPVFSSDQPDNVVGILLAKDLLPFLTEPSAKVDVRALMRQPLFVPESARSDQVLRMLKHTQTHIAVVIDEYGTTSGLVTLEDILEEIVGEIEDEHDNVDEEAQYIVPDHAHTTANSWMVQALTPIEHFNTVLDADFSDDEVETVGGLLLQEIGLVSDLQGQVIELDDWQFTIIEADARTIHLIRAVHK", "values": [{"measurement": "protein production", "value": "failed"}]}
{"sequence": "MHEIYIYLGIMFMPTYKHSHTPSHDIEDDEDEGTEHLVDELRTNAGAFEEEALVEKLLENLDLDEVEEDEHDAANASFFDSLHFSSIFVLQKREGENESF", "values": [{"measurement": "protein production", "value": "failed"}]}
{"sequence": "MHEKVPKKTYDSELYNGYLAIYNGYGDLRYFTVKIENDICVSLVWNTGMTKKSRGKKRIRINVYRPKIAPAKNKKPKPTKEQLMDPEFSDEDVLTSLGFDDGGYIIPLPKKSLMLINLPDSFRDELQTMHVSFYLREVGKLMFG", "values": [{"measurement": "protein production", "value": "failed"}]}
{"sequence": "MHFCFISSISKIIDRYEIQHADELRALDLEEKIQNYLPHKELLETVQRLAVRHIFLPSSSDKKNVFFLLSTCEYSKLEEPNVDNVSVDSLISLEEQLETALSVSRARKAELMMEYIESLKEKVSALVFIFDKGHILGYDDS", "values": [{"measurement": "protein production", "value": "failed"}]}
{"sequence": "MHGKDPFSDFREFINTMESRVQELGKAYGVEHLAGPQGFAVRYLFENQDKEIFIKDIEKKLSISKSVASNLVKRMEKNGFVELVTSDKDKRYKYVHLTDLGKKKAQDVGHFREAIHGQLLDGISKEDAETAFRVFHQIRKNLEKNKELEHHHHHH", "values": [{"measurement": "protein production", "value": "not failed"}]}
{"sequence": "MHGSQKDTTFTKIFVGGLPYHTTDASLRKYFEGFGDIEEAVVITDRQTGKSRGYGFVTMADRAAAERACKDPNPIIDGRKANVNLAYLGAKPRSLQTGFAIGV", "values": [{"measurement": "protein production", "value": "not failed"}]}
{"sequence": "MHHQQRMAALGTDKELSDLLDFSAMFSPPVSSGKNGPTSLASGHFTGSNVEDRSSSGSWGNGGHPSPSRNYGDGTPYDHMTSRDLGSHDNLSPPFVNSRIQSKTERGSYSSYGRESNLQGCHQQSLLGGDMDMGNPGTLSPTKPGSQYYQYSSNNPRRRPLHSSAMEVQTKKVRKVPPGLPSSVYAPSASTADYNRDSPGYPSSKPATSTFPSSFFMQDGHHSSDPWSSSSGMNQPGYAGMLGNSSHIPQSSSYCSLHPHERLSYPSHSSADINSSLPPMSTFHRSGTNHYSTSSCTPPANGTDSIMANRGSGAAGSSQTGDALGKALASIYSPDHTNNSFSSNPSTPVGSPPSLSAGTAVWSRNGGQASSSPNYEGPLHSLQSRIEDRLERLDDAIHVLRNHAVGPSTAMPGGHGDMHGIIGPSHNGAMGGLGSGYGTGLLSANRHSLMVGTHREDGVALRGSHSLLPNQVPVPQLPVQSATSPDLNPPQDPYRGMPPGLQGQSVSSGSSEIKSDDEGDENLQDTKSSEDKKLDDDKKDIKSITSNNDDEDLTPEQKAEREKERRMANNARERLRVRDINEAFKELGRMVQLHLKSDKPQTKLLILHQAVAVILSLEQQVRERNLNPKAACLKRREEEKVSSEPPPLSLAGPHPGMGDASNHMGQM", "values": [{"measurement": "protein production", "value": "failed"}]}
{"sequence": "MHIAIIGAAGMVGRKLTQRLVKDGSLGGKPVEKFTLIDVFQPEAPAGFSGAVDARAADLSAPGEAEKLVEARPDVIFHLAAIVSGEAELDFDKGYRINLDGTRYLFDAIRIANGKDGYKPRVVFTSSIAVFGAPLPYPIPDEFHTTPLTSYGTQKAICELLLSDYSRRGFFDGIGIRLPTICIRPGKPNAAASGFFSNILREPLVGQEAVLPVPESIRHWHASPRSAVGFLIHGAMIDVEKVGPRRNLSMPGLSATVGEQIEALRKVAGEKAVALIRREPNEMIMRMCEGWAPGFEAKRARELGFTAESSFEEIIQVHIEDELGGSLK", "values": [{"measurement": "protein production", "value": "not failed"}]}
{"sequence": "MHILSMIKSQLKLLFNNRLAVFAIILAPILLTFLVSYSSSSNSKTNVYFADQDNTEASRQLVNMLKNNHDLNLISSSESEIKNKVDDDNITVGVLINKGFGYKLQNNKALDITLIEDYDSVDGEKLSDIILSTENTLQKVNLDSKSISRVLSSNESSISNKIIKKINNGSGVKLLYKNLKSSQNVEDKNAQNLIGFLLMFLWFIVIQGFRTLIEEKENNTFNRIKGTPTNYSKYLLSKIIANYIFGMIIIAIILIVGKYGLKSKIINNVGPEIAILSIYLFSIVGLVMIFVPFVKKHQTFTIIGAAIMVLTGLLGGSFFSMDELQLPKAIEIISKFMPETWGIKSLKEVVFNNLSLGSQSQTILVLGIAGIVGLLISTIIVKIIDRTEKNF", "values": [{"measurement": "protein production", "value": "failed"}]}
{"sequence": "MHILVTGFAPFDNQNINPSWEAVTQLEDIIGTHTIDKLKLPTSFKKVDNIINKTLASNHYDVVLAIGQAGGRNAITPERVAINIDDARIPDNDDFQPIDQAIHLDGAPAYFSNLPVKAMTQSIINQGLPGALSNSAGTFVCNHTLYHLGYLQDKHYPHLRFGFIHVPYIPEQVIGKPDTPSMPLEKIVAGLTAAIEAISNDEDLHLALGTTE", "values": [{"measurement": "protein production", "value": "failed"}]}
{"sequence": "MHIPENLYVVGTMNIADRSLALVDLALRRRFAFVGLEPRLGQVWRDWVVKECAVDPGLVADIERRIAELNDQIAADARLGKQFRIGHSYVTPAHRLEAGDTKKWFLQVVETEIGPLLDEYWFDAPDEAQKAIARLTQGLEHHHHHH", "values": [{"measurement": "protein production", "value": "failed"}]}
{"sequence": "MHLAYPAVLSALLFCTGLYGVLARRNAILVLMSVELMLNAVNLNLVAFDVWLSRAAEETLHSGQALTLFTIAIAAAEIGIGLAIVLAVHRNRGTSDIDKLRDTAEGHEPDGPDTDTPATGTAAEKAEATA", "values": [{"measurement": "protein production", "value": "failed"}]}
{"sequence": "MHLDPDACYHAVQSRDRRFDGWFFVGVTSTGVYCRPICAVRTPLQKNCRFFASAAAAEKAGFRPCLRCRPELAPGHSLAEMSSSLARAAARMIDEGFLQQHDLAALAAAVGVTDRHLRRIFRAEFDVSPIEYAQTQRLLLAKRLLTDTAMPVGDVAYAAGFGSVRRLNSGFAEHYGFAPTRLRTRAAPVSRGDDGATLMLGYRPPFAWHALLDFLRARAVDGVEVVDAHSYARTIALDYAGRRHAGWLRARDVPQRHAIALTLSASLVQAMPPVLARVRRLFDLDCRPDLVDTHLGTLAAGTPGLRVPGAVDGFEIAVRAIAGQVVSLARARRILARLAAAYGTPLAQPRAGLPTAFPSATALASVDPQALSGETGLQASRAAAMVEIARAIDAGRLRLEPLVPLAPTLAALQALSGIGEWTAQYIAMRALGWPNAFPLGDYVLRKRLADHDGTLPTRHAMATRAEDWAPWRAYAAMHLWHRDDAQAPTP", "values": [{"measurement": "protein production", "value": "failed"}]}
{"sequence": "MHLETNMAGHSIPHFQNDGGHSVIEIGVKEFMCTGASVPFDHPHIFIDMGDDNEKVCSYCSTLYRYNPSLKAEQTNPPGCVFHVKAALEHHHHHH", "values": [{"measurement": "protein production", "value": "not failed"}]}
{"sequence": "MHLKEKITTIIQGQRTGVLSTVRNDKPHSAFMMFFHEDFVLYVATDRQSKKITDIENNPNVHVLLGREGKKLDEDYIEVEGLASIEEDSTLKNKFWNNSLKRWLLRPEDPNYVLIKINPDTIYYIDGAGTTEPEFLRL", "values": [{"measurement": "protein production", "value": "not failed"}]}
